Assay results taken from publication PMC10201424, “Biochemical characterisation of Mer3 helicase interactions and the protection of meiotic recombination intermediates” (Nucleic Acids Research, 2022).

Experiments:
Mer3 = target: T1, Mer3 (Saccharomyces cerevisiae, UniProt P51979 1-1187); test: EMSA; no Mg or ATP; high affinity; EMSA: 25 mM HEPES pH 7.5, 0.1 ug/ul BSA, 60 mM NaCl, 10 nM DNA, 20 min at 30 C; 0.8% agarose in 1x TAE; Mer3 37.5-300 nM, Mlh1-Mlh2 20-150 nM; conditions: protein: recombinant; tags: C-terminal Twin-StrepII; label: 5'-FAM on strand 1; synthetic D-loop of 4 annealed oligos
T1 sequence: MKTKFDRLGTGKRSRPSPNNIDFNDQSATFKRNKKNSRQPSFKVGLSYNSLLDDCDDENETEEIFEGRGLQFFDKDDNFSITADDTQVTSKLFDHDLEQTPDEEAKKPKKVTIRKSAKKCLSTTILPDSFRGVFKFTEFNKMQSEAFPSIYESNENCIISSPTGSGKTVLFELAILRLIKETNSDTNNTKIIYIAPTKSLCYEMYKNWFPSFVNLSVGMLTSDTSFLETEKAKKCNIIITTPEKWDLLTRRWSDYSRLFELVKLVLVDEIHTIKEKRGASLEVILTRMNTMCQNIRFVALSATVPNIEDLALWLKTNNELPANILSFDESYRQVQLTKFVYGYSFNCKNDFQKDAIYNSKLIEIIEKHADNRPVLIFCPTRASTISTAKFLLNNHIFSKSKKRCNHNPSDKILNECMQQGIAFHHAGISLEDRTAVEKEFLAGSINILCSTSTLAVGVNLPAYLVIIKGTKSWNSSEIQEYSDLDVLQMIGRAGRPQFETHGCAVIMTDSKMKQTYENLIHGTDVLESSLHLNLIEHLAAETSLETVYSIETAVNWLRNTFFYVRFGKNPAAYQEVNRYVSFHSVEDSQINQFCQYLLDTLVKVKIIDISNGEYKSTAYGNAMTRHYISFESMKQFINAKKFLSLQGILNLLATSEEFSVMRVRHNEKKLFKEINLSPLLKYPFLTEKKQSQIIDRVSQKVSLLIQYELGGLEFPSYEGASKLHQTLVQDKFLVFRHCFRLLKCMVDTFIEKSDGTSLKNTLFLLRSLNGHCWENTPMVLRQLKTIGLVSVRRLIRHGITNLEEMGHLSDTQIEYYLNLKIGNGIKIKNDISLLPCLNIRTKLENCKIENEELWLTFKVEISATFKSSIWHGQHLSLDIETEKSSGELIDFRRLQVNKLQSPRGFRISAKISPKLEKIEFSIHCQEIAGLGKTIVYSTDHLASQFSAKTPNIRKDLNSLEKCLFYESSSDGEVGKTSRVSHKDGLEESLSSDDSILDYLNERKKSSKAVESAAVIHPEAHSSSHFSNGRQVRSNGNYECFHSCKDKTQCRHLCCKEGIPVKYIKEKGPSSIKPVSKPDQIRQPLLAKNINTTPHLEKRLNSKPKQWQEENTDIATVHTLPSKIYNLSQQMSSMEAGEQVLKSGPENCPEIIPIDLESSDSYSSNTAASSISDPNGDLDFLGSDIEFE

MBP-Mlh1;MBP-Mlh2 = target: T2, MBP-Mlh1;MBP-Mlh2 (Saccharomyces cerevisiae;Saccharomyces …, UniProt P38920;Q07980 1-769;1-695, |); test: EMSA; robust binding; EMSA: 25 mM HEPES pH 7.5, 0.1 ug/ul BSA, 60 mM NaCl, 10 nM DNA, 20 min at 30 C; 0.8% agarose in 1x TAE; Mer3 37.5-300 nM, Mlh1-Mlh2 20-150 nM; conditions: protein: recombinant;recombinant; tags: N-terminal 6xHis-MBP;N-terminal 6xHis-MBP; copies: 1;1; label: 5'-FAM on strand 1; synthetic D-loop of 4 annealed oligos
T2 sequence 1: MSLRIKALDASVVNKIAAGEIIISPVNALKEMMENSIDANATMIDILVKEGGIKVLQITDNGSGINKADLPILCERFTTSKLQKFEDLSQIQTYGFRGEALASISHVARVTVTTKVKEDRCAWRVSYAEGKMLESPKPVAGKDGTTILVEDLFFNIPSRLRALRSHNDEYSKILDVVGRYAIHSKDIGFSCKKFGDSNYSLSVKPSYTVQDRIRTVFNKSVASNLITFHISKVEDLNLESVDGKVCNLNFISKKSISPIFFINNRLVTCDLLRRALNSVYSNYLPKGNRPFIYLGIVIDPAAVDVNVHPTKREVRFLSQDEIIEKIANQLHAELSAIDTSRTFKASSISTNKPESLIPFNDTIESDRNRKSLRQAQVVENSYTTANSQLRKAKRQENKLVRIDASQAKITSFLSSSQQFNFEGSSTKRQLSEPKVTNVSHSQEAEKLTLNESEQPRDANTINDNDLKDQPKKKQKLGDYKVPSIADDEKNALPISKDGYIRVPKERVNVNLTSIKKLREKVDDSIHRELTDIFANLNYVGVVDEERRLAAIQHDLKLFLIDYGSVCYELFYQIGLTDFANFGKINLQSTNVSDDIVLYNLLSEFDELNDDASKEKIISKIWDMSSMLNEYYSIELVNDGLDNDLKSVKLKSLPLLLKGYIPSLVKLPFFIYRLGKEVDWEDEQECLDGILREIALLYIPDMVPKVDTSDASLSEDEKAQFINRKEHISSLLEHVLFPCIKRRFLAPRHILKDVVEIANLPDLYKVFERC
T2 sequence 2: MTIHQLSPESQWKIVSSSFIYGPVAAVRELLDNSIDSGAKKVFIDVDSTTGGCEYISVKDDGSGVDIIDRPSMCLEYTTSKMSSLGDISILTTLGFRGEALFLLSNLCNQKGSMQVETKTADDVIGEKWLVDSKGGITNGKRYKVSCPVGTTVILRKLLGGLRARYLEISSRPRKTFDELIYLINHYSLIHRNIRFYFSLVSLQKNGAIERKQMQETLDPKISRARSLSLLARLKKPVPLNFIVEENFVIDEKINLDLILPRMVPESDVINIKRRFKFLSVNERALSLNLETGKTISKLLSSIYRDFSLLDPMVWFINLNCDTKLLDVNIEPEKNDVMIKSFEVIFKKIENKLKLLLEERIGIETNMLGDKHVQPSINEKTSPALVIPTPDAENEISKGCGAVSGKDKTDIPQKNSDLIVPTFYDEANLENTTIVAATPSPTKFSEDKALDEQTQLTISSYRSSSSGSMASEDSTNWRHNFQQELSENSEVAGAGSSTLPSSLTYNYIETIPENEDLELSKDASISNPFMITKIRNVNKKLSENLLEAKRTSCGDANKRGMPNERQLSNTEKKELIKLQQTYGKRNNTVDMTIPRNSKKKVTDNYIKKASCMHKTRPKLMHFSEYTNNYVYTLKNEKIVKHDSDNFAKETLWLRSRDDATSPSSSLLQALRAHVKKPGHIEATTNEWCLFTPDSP

His-Mlh1;Strep-Mlh2 = target: T3, His-Mlh1;Strep-Mlh2 (Saccharomyces cerevisiae;Saccharomyces …, UniProt P38920;Q07980 1-769;1-695, |); test: as above; conditions: protein: recombinant;recombinant; tags: N-terminal 6xHis;N-terminal Twin-StrepII; copies: 1;1; label: 5'-FAM on strand 1; synthetic D-loop of 4 annealed oligos
T3 sequence 1: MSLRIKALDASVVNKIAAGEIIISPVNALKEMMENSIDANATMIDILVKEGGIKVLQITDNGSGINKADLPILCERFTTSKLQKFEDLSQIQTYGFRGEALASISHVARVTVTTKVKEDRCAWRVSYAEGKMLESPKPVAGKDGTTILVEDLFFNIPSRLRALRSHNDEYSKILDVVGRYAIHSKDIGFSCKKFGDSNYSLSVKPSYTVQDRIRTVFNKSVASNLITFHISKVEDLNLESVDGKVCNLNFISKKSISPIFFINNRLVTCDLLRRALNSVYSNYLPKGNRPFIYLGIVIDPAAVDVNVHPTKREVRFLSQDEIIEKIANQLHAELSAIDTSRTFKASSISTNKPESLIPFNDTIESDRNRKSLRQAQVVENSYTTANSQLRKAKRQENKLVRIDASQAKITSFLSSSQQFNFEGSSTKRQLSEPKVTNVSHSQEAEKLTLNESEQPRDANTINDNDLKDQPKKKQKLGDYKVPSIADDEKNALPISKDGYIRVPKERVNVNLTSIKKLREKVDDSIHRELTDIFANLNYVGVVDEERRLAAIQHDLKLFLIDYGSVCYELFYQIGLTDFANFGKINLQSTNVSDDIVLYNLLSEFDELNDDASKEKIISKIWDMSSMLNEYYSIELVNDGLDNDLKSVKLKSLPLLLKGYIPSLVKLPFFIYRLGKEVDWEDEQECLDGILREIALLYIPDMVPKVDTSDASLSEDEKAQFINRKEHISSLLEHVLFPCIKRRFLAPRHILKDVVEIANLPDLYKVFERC
T3 sequence 2: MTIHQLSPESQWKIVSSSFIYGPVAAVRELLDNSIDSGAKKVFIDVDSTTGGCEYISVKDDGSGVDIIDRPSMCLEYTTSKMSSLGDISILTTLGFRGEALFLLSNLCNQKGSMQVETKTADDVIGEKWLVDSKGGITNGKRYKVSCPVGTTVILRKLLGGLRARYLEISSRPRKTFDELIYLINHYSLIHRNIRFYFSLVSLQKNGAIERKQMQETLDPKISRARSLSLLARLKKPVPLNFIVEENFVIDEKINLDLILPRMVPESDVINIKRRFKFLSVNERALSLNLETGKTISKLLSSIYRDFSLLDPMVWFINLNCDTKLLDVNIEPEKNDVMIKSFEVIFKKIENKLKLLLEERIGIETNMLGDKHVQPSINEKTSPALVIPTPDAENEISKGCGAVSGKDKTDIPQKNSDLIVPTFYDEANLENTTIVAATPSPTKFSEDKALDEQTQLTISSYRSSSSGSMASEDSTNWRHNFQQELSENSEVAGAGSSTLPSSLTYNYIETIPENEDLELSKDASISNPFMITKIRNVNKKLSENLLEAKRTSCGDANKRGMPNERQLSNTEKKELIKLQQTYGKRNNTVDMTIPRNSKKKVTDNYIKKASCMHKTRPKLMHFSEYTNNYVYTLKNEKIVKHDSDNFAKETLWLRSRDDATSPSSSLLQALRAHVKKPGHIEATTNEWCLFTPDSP

Measured: binding result

B1: D-loop (1253-T, 315, 320, X12-3SC) (mixed)
DNA 1: GGGTCAACGTGGGCAAAGATGTCCTAGCAATGTAATCGTCTATGACGTT
DNA 2: AACGTCATAGACGATGATCCGATGCATATCCGCCTGCCCACGTTGACCC
DNA 3: GCGATAGTCTCTAGACAGCATGTCCTAGCAATACATTGCTAGGACATCTT
DNA 4: TTGCTAGGACATGCTGTCTAGAGACTATCGC
binds: Mer3 | MBP-Mlh1;MBP-Mlh2 | His-Mlh1;Strep-Mlh2
